Source: PMC3467281

Molecular target: T1, Fas (mouse (endogenous in WEHI-231)) (UniProt P25446)
T1 sequence: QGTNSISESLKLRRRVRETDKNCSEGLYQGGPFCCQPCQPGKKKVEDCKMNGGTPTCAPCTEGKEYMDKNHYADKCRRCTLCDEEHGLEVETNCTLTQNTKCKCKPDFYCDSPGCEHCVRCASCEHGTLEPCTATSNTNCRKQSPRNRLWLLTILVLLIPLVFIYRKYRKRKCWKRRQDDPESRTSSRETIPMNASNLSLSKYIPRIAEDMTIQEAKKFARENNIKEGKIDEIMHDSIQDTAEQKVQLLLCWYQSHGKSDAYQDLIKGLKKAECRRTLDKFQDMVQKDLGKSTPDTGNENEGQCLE

## FasL (from UniProt P41047 1-279) (ligand)
  survival of p21–35-loaded WEHI-231 cells co-cultured with the cytolytic CD4+ T cell clone R3TB7, restored by increasing concentrations of an anti-FasL antibody (Annexin V / 7-AAD) (% of WEHI-231 cell survival): 80
